Measured values as given in the DeepSol protein solubility set.

Assay: soluble on expression in E. coli; label from the status in PepcDB or PDB records

Sequence | soluble on expression in E. coli
MSGLHILAFGAHADDVEIGMAGTIAKYTKQGYEVGICDLTEADLSSNGTIELRKEEAKVAARIMGVKTRLNLAMPDRGLYMKEEYIREIVKVIRTYKPKLVFAPYYEDRHPDHANCAKLVEEAIFSAGIRKYMPELSPHRVESFYNYMINGFHKPNFCIDISEYLSIKVEALEAYESQFSTGSDGVKTPLTEGYVETVIAREKMFGKEVGVLYAEGFMSKKPVLLHADLLGGCK | not soluble
VQQTERAVMLRFGRVVESDVKPGLHFKIPYVNQVRKFDARLLTLDAPTQRFLTLEKKAVMVDAYAKWRVADAERFYTATSGLKQIADERLSRRLEAGLRDQFGKRTLHEVVSGERDALMGDITASLNRMAQKELGIEVIDVRVKAIDLPKEVNRSVFERMSTEREREAREHRAKGRELAEGIRADADRQRRVIVAEAYRESEETRGDGDSKAAAIYAKAYNQDPEFYSFYRSLKAYRESFAEKRDVLVLDPSSEFFRY | not soluble
MVIRPVERSDVSALMQLASKTGGGLTSLPANEATLSARIERAIKTWQGELPKSEQGYVFVLEDSETGTVAGICAIEVAVGLNDPWYNYRVGTLVHASKELNVYNALPTLFLSNDHTGSSELCTLFLDPDWRKEGNGYLLSKSRFMFMAAFRDKFNDKVVAEMRGVIDEHGYSPFWQSLGKRFFSMDFSRADFLCGTGQKAFIAELMPKHPIYTHFLSQEAQDVIGQVHPQTAPARAVLEKEGFRYRNYIDIFDGGPTLECDIDRVRAIRKSRLVEVAEGQPAQGDFPACLVANENYHHFRVVLARTDPATERLILTAAQLDALKCHAGDRVRLVRLCAEEKTA | not soluble
DEICKNQYLYRINQENYVLFSFDIFDTLISRNIAKPSAVFLIMKQKMRNMDFPLNLVKNFDRIRVEVEQYYYRNVCKNKYEDTNFDEIYNLLQQNFSLSFQQKEELMKLEINTEKETLYPIKKNIELVEELIKNEKRVVLISDMYFSSSIIRTFLNKFSPIFNNIPIYMSSEFRLKKNSGNLFKAILNLEKVDPKKWIHCGDNWVGDYLKPSNLEISTNFYINQLLPYEEFALNRNSLDMDLQKIIGISKKIR | not soluble
MNDFHRDTWAEVDLDAIYDNVENLRRLLPDDTHIMAVVKANAYGHGDVQVARTALEAGASRLAVAFLDEALALREKGIEAPILVLGASRPADAALAAQQRIALTVFRSDWLEEASALYSGPFPIHFHLKMDTGMGRLGVKDEEETKRIVALIERHPHFVLEGLYTHFATADEVNTDYFSYQYTRFLHMLEWLPSRPPLVHCANSAASLRFPDRTFNMVRFGIAMYGLAPSPGIKPLLPYPLKEAFSLHSRLVHVKKLQPGEKVSYGATYTAQTEEWIGTIPIGYADGWLRRLQHFHVLVDGQKAPIVGRICMDQCMIRLPGPLPVGTKVTLIGRQGDEVISIDDVARHLETINYEVPCTISYRVPRIFFRHKRIMEVRNAIGRGESSA | soluble
MGSDKIHHHHHHMAISVTAEEKQILAGVTIPPRPQALLDISKEAKQEYPDVSKIAKAISEDVGISAAVLQVVNSVAFRRNNQISSIHQAVMTLGIKRIFPLVKAVAIKGALPENPMLNEFWQSSSMVASACTLYANLLGKANLSDNAYMLGLFHNAGVPVMLQAFPAYQALLMRGITEGWGEVASLEVQEFKTSHTTLGALLAQQWELPKPMVEVIYYLHDIDGIFTSGELSEVGLYLLAILKLARSSVDGVIRGECNTDEWLKIQDPLLAFLNLDEVQLDEFREEVAEKLRSEG | not soluble
MSLSHKSKKLLLVDDDQTVLKLMTEVLTDFGHCVTSVPSARHALNHFTSAGQAFDLLITDICMPGMNGVELIKAVRAHNGTLPIIAISGFSEPEDQNEIAHYDARMLTKPVDFQTLKQTIDALEGHHHHHH | not soluble
MIHITSQACFLWHTTINKICNRPMFNPLTIRFWGVRGSIPCPGSHTVRYGGNTPCVEIQANGQRIILDGGTGLRVLGEHLMGQQPVTAHLFFTHTHWDHIQGFPFFQPAFVPGNQFHIYAVPGKNGQGIERRLNDQMLHPNFPVPLQIMGGDLRFYDLEVGERVHLGDGVVVSNEALNHPGGGVGYRVSWQGIHVAYITDTEHLPDRLHPGAFALADHADVMIYDATYTDEEYYHPQQSKVGWGHSTWQEAVKLAQAAQVKQLILFHHDPSHDDDCLDRIGELARAQFPQTLLAREGLIISVYPNVIHFPATPQASLEHHHHHH | not soluble
MTVITEPARQTPVIHNTDVLVVGSGPGGLAAALAAARAGVDVCLVERFGCFGGNITVVGVEGFAWYRHEATVEAGGIGREFEDRAREMGAAVPESQSLSYEIDSEGFKLVADRLVEEAGVHGMLHRQFVAPVMEGDRVAGIIVESKAGREAILARVVIDATGDADVAHRAGAPTLKTPAEHMQAASVMFHLAGVDKAAFMAEVRRDPQTYKDWSTGEWTVETDGKEDDMFSPFLKKPFAKAIEEGVIPPHLNTIAGTWGAMHDTGELTYMNLVHLAGVDGTDPDSLTQGEIEGRRQAMLAIEALRRFMPGCGGVRLRNFGMTIGIRDTRKIRAAYDMTETDVRQQGRFDDSIGIYPEFIDGYGVLIIPTTGRYMQIPYRAVLPGKVKGLLVAGRAIGGDRIAHAATRNMACCAVAGQGAGVAAALAVKTGCDVAQVDMAGVQAELLRQGVRIALEHHHHHH | not soluble
MYSDSRKRSSDDLIDNSDESKKPKESRNLYCTLAAYGCRKGERADMQDTHIMLPKFDLGTEKSFLSRASFFAIFDGHAGPRAAEHCQSQMGKTVKEKLAKFSDFPTLTKSLKQTFTESYKAVDDGFLAIAKQNKPIWKDGTTATTMIILNNVIYVANIGDSRAVVARKKEDGSFAPVCLTVDHDPMSHDERMRIQKAGAVVKDGRINGVIEVSRSIGDLPFKSLGIISTPDLKKLTLTKNDL | not soluble
MSFTQLMRVSMKIAFIGEAVSGFGGMETVIRDVITTFRQQHIQSEMFFFCRNDKMDKGWLEGIKYSCSFSNIRLGFLRRAKHIHALSKWLQEYQPDIVICIDVISCLFAAKARKKSGIDMPVFSWPHFSLDHKKHAEYITCADYHLAISSGIKQQMINRGVAESTINVIFNPVETKDSVIPAPEEGETATFIYVGRMKFEGQKRVKDLLDGLSQAKGNWKLHVLGDGSDFEKCQAYGRELNIDDRIVWYGWQQYPWELVQQDIEKVSALLLTSSFEGFPMTLLEALSWGIPCISADCVSGPADIIQPDVNGHLYQPGDIAGFVTLLNKYIAGEIHIEHEKIPASIDEFYQSKYYDRLHKVIISAISRRK | not soluble
MGSYIQMSGIGSRLRQERERLGLSQKVFGEIGGVEANAQGKYESGDRAPKADYLSRVAAKGVDVLYVLTGSRIPIQSGGLSQTEEKVLDCYRALFKEDQDAICRLTSTLAELSASQGERRKAQVRE | soluble
MSLELTVFSIGDWGEKTECLVNVTTKMGSLESAMNPKFIISVGDNFYQRGVKSVEDAAWTEILEEPFGKLSKHLKVHSCLGDHDWRGSTTAQIDRTNYANNTRWYLPGYWWYEKVTFTSEVSLPSLFEKSGLGEISANNSFHFNSSKTENSTSCEIDCLDEIVDNLNTMVNRNNSWNEDLSYKTSISEYFSEKQVNSTAVFIYIDSWTLTQDPFKKTSISYKYSQLEFIEQTLKAAVFENVDWIILVTHYSIYSSGLHGPHTRLASILMPLIKKYRVDFIISGHDHHSEILVPEDFNSYFQIVGASSKEGHHHHHH | soluble
MGSDKIHHHHHHMGKTTRKVQITGGSTFIVSLPPEWVKRNGITKGSEISISDDGNDLVISSSNPDLPEVSKKIIIPPNYTGKPLQRLLTSSYISGFDTLSIVSKEKMGSELRDDIKRFSKVVMGIEIIEETSKSVVLQNVLNVKTFPLSKAIRRMSLNVGTMIEDTIKAIEDYDEELFQNVIERDDEVDRYQWYIYREVKNHCQYEDSNVFMLVLSRILERMADHTVNICIAMKDRKAVNGRMEMIDNLKFSLDVYNHAVESFYSKNFKVLDGIINQKSEINERKFKLLKILSYDVVLSSIAEEISRIGLYGTDIAELAMDLILSDKLEFSVQ | not soluble
MGHHHHHHSHDDVIDKTLNYTRRKSNDIVYIGSLSKDKGVDILLELVKTFTKNGNDTIIHIVGKGLLYEKIFERIGEINKRVIYYGPQPLKRALQIASRASLGVVLTRPSYESLTTDPMKPKVYLAAHTPVILPEYFEISSYVNRFKAGMVVGKLKPSYILSKVKVALEDSNTLLKGAERLAKS | not soluble
MAKTLYEKLFDAHVVYEAENETPLLYIDRHLVHEVTSPQAFDGLRAHGRPVRQPGKTFATMDHNVSTQTKDINACGEMARIQMQELIKNCKEFGVELYDLNHPYQGIVHVMGPEQGVTLPGMTIVCGDSHTATHGAFGALAFGIGTSEVEHVLATQTLKQGRAKTMKIEVQGKAAPGITAKDIVLAIIGKTGSAGGTGHVVEFCGEAIRDLSMEGRMTLCNMAIEMGAKAGLVAPDETTFNYVKGRLHAPKGKDFDDAVAYWKTLQTDEGATFDTVVTLQAEEISPQVTWGTNPGQVISVNDNIPDPASFADPVERASAEKALAYMGLKPGIPLTEVAIDKVFIGSCTNSRIEDLRAAAEIAKGRKVAPGVQALVVPGSGPVKAQAEAEGLDKIFIEAGFEWRLPGCSMCLAMNNDRLNPGERCASTSNRNFEGRQGRGGRTHLVSPAMAAAAAVTGHFADIRNIK | soluble
MGSDKIHHHHHHMFFYNIHQPMKTLIENLTSDLLPNQIFQTGFSFLIILKGNSLLKLDSNVLIFIMSGTMKVSSAQQELATVRERHIFFWDKEDDYTCEMLSDSQVILFAFGDLIVHDLLTFRPFGAISDSSVSKDVGLKFAEPLNSFLQLLAQYMEMNLYDLSLYIAKQRELFYILNSVYNEQELAILFSSLTEQSSRFKEQILENYLSAKNVGELASLLGYGVTNFRAKFKEQFGVSVYRWLLNRKSQHIIYRITVYGDEFSQIIDDFGFSSPSHFNKFCRSQYGLTPCELRKKLKTNNNS | not soluble
SLIKKVKIKKFNGRDFYDMEDYVAVEESYNIFINGEFVKSLSMSPNFLNEFAVGFAISEGFLNKIDKVEVDKNNINIFGEKNDREIKNNKNNKEIKIDIEIIKKIISYEIKAKYWEITGSFHWASMFDLKGNSIIFVEDIGRHNAVDKVIGYAILNNYNLNKLILRYSGRIPSDIVKKAINSGLNIIISKSPPTDKAIELAEENNILLIGFARNGKFNIYTSGRLWEE | soluble
MAAHGGSAASSALKGLIQQFTTITGASESVGKHMLEACNNNLEMAVTMFLDGGGIAEEPSTSSASVSTVRPHTEEEVRAPIPQKQEILVEPEPLFGAPKRRRPARSIFDGFRDFQTETIRQEQELRNGGAIDKKLTTLADLFRPPIDLMHKGSFETAKECGQMQNKWLMINIQNVQDFACQCLNRDVWSNEAVKNIIREHFIFWQVYHDSEEGQRYIQFYKLGDFPYVSILDPRTGQKLVEWHQLDVSSFLDQVTGFLGEHGQLDGLSSSPPKKCARSESLIDASEDSQLEAAIRASLQETHFDSTQTK | not soluble
MVFKMMYSEAILDYANSKKFRGKLDDATVIEEGKNISCGDEITLYLKVEDGVVKDAKFEGMGCVISQASASLMLERIIGERVEEIFSLIEEAEKMSRGENFDEGKLKNVTLMSDIKNYPARVKCFILAWKTLKEALKKISRP | soluble
GQEVTVSCAEGDTGFIYAGLLDVQITDVALDNMPKAPVKVMMNVGNPELAFSFANLPSEGIGLARMEFIINRQIGIHPKALLEFDKQDDELKAEITRRIAGYASPVDFYVDKIAEGVATLAASVYPRKTIVRMSDFKSNEYANL | not soluble
MDYKDDDDKLVDSLRACVFDAYGTLLDVHSAVMRNADEVGASAEALSMLWRQRQLEYSWTRTLMHQYADFWQLTDEALTFALRTYHLEDRKGLKDRLMSAYKELSAYPDAAETLEKLKSAGYIVAILSNGNDEMLQAALKASKLDRVLDSCLSADDLKIYKPDPRIYQFACDRLGVNPNEVCFVSSNAWDLGGAGKFGFNTVRINRQGNPPEYEFAPLKHQVNSLSELWPLLAKNVTKAA | soluble
